T1: FcγRIIa R (human, UniProt P12318 34-217)
T1 construct: extracellular domain; also called FcgRIIa R type; 2aR
T1 sequence (looked up): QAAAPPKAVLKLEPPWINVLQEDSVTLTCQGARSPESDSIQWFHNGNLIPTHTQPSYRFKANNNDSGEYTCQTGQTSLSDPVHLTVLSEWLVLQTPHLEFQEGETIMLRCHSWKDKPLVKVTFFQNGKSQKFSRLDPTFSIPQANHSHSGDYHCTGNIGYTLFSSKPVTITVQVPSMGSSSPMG

B1: GpH7-B3 variant I336_06M/GpL16-k0 (antibody, human IgG1, kappa)
heavy: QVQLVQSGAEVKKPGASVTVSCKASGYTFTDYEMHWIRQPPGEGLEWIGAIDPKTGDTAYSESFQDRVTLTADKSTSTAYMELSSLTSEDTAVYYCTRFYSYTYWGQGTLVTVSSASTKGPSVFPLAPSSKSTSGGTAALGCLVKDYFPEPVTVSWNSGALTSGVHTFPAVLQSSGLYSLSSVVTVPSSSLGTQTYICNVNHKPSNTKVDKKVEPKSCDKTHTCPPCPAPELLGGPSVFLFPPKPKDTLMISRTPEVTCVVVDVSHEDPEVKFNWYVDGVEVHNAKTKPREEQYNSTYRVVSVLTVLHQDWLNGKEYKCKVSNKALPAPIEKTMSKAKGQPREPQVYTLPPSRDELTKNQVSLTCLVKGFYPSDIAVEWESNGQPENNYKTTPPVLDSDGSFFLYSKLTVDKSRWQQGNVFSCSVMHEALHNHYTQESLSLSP
light: DIVMTQSPLSLPVTPGEPASISCQASESLVHSNRNTYLHWYLQKPGQSPQLLIYKVSNRFSGVPDRFSGSGSGTDFTLKISRVEAEDVGVYYCSQNTHVPPTFGQGTKVEIERTVAAPSVFIFPPSDEQLKSGTASVVCLLNNFYPREAKVQWKVDNALQSGNSQESVTEQDSKDSTYSLSSTLTLSKADYEKHKVYACEVTHQGLSSPVTKSFNRGEC
notes: also called Ho Ab I336_06M
B2: GpH7-B3 variant K334_08L/GpL16-k0 (antibody, human IgG1, kappa)
heavy: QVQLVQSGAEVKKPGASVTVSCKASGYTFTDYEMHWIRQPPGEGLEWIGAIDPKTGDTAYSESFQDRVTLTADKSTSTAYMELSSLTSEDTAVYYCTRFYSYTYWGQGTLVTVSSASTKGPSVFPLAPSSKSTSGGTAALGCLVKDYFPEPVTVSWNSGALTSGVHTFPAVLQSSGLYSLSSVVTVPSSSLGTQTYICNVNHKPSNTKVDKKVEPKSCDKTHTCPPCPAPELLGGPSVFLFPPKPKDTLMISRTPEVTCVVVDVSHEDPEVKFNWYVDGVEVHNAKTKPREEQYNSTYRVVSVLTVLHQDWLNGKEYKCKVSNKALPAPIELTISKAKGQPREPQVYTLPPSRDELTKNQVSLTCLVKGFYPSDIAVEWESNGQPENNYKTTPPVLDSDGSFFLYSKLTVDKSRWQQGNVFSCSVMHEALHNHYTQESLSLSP
light: DIVMTQSPLSLPVTPGEPASISCQASESLVHSNRNTYLHWYLQKPGQSPQLLIYKVSNRFSGVPDRFSGSGSGTDFTLKISRVEAEDVGVYYCSQNTHVPPTFGQGTKVEIERTVAAPSVFIFPPSDEQLKSGTASVVCLLNNFYPREAKVQWKVDNALQSGNSQESVTEQDSKDSTYSLSSTLTLSKADYEKHKVYACEVTHQGLSSPVTKSFNRGEC
notes: also called Ho Ab K334_08L
B3: GpH7-B3 variant K326_15Y/GpL16-k0 (antibody, human IgG1, kappa)
heavy: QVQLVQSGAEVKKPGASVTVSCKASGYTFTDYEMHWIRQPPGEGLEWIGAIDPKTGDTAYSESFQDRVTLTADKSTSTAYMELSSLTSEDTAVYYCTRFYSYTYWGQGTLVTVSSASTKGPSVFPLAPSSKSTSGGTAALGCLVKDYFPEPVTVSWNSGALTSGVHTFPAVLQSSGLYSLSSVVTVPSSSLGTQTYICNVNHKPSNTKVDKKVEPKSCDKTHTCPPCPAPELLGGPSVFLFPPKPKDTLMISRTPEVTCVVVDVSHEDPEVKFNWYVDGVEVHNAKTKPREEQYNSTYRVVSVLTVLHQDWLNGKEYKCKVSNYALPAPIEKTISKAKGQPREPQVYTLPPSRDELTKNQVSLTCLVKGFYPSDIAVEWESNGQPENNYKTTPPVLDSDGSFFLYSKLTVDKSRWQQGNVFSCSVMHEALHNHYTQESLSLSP
light: DIVMTQSPLSLPVTPGEPASISCQASESLVHSNRNTYLHWYLQKPGQSPQLLIYKVSNRFSGVPDRFSGSGSGTDFTLKISRVEAEDVGVYYCSQNTHVPPTFGQGTKVEIERTVAAPSVFIFPPSDEQLKSGTASVVCLLNNFYPREAKVQWKVDNALQSGNSQESVTEQDSKDSTYSLSSTLTLSKADYEKHKVYACEVTHQGLSSPVTKSFNRGEC
notes: also called Ho Ab K326_15Y
B4: GpH7-B3 variant K334_02A/GpL16-k0 (antibody, human IgG1, kappa)
heavy: not shown
light: DIVMTQSPLSLPVTPGEPASISCQASESLVHSNRNTYLHWYLQKPGQSPQLLIYKVSNRFSGVPDRFSGSGSGTDFTLKISRVEAEDVGVYYCSQNTHVPPTFGQGTKVEIERTVAAPSVFIFPPSDEQLKSGTASVVCLLNNFYPREAKVQWKVDNALQSGNSQESVTEQDSKDSTYSLSSTLTLSKADYEKHKVYACEVTHQGLSSPVTKSFNRGEC
notes: also called Ho Ab K334_02A
B5: GpH7-B3 variant K326_18N/GpL16-k0 (antibody, human IgG1, kappa)
heavy: not shown
light: DIVMTQSPLSLPVTPGEPASISCQASESLVHSNRNTYLHWYLQKPGQSPQLLIYKVSNRFSGVPDRFSGSGSGTDFTLKISRVEAEDVGVYYCSQNTHVPPTFGQGTKVEIERTVAAPSVFIFPPSDEQLKSGTASVVCLLNNFYPREAKVQWKVDNALQSGNSQESVTEQDSKDSTYSLSSTLTLSKADYEKHKVYACEVTHQGLSSPVTKSFNRGEC
notes: also called Ho Ab K326_18N
B6: GpH7-B3 variant I336_18N/GpL16-k0 (antibody, human IgG1, kappa)
heavy: not shown
light: DIVMTQSPLSLPVTPGEPASISCQASESLVHSNRNTYLHWYLQKPGQSPQLLIYKVSNRFSGVPDRFSGSGSGTDFTLKISRVEAEDVGVYYCSQNTHVPPTFGQGTKVEIERTVAAPSVFIFPPSDEQLKSGTASVVCLLNNFYPREAKVQWKVDNALQSGNSQESVTEQDSKDSTYSLSSTLTLSKADYEKHKVYACEVTHQGLSSPVTKSFNRGEC
notes: also called Ho Ab I336_18N
B7: GpH7-B3 variant K334_04F/GpL16-k0 (antibody, human IgG1, kappa)
heavy: not shown
light: DIVMTQSPLSLPVTPGEPASISCQASESLVHSNRNTYLHWYLQKPGQSPQLLIYKVSNRFSGVPDRFSGSGSGTDFTLKISRVEAEDVGVYYCSQNTHVPPTFGQGTKVEIERTVAAPSVFIFPPSDEQLKSGTASVVCLLNNFYPREAKVQWKVDNALQSGNSQESVTEQDSKDSTYSLSSTLTLSKADYEKHKVYACEVTHQGLSSPVTKSFNRGEC
notes: also called Ho Ab K334_04F
B8: GpH7-B3 variant K326_08L/GpL16-k0 (antibody, human IgG1, kappa)
heavy: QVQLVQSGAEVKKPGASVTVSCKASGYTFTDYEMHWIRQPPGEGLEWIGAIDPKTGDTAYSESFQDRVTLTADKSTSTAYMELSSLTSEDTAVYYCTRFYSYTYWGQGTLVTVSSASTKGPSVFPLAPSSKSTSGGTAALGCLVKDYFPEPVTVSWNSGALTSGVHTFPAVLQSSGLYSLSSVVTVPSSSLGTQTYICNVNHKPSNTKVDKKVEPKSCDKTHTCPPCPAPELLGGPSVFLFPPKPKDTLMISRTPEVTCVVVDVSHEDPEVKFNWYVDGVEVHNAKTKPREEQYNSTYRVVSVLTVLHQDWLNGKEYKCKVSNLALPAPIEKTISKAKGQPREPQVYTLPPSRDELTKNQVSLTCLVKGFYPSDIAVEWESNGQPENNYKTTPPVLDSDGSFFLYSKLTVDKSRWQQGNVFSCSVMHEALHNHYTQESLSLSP
light: DIVMTQSPLSLPVTPGEPASISCQASESLVHSNRNTYLHWYLQKPGQSPQLLIYKVSNRFSGVPDRFSGSGSGTDFTLKISRVEAEDVGVYYCSQNTHVPPTFGQGTKVEIERTVAAPSVFIFPPSDEQLKSGTASVVCLLNNFYPREAKVQWKVDNALQSGNSQESVTEQDSKDSTYSLSSTLTLSKADYEKHKVYACEVTHQGLSSPVTKSFNRGEC
notes: also called Ho Ab K326_08L
B9: GpH7-B3 variant K334_10E/GpL16-k0 (antibody, human IgG1, kappa)
heavy: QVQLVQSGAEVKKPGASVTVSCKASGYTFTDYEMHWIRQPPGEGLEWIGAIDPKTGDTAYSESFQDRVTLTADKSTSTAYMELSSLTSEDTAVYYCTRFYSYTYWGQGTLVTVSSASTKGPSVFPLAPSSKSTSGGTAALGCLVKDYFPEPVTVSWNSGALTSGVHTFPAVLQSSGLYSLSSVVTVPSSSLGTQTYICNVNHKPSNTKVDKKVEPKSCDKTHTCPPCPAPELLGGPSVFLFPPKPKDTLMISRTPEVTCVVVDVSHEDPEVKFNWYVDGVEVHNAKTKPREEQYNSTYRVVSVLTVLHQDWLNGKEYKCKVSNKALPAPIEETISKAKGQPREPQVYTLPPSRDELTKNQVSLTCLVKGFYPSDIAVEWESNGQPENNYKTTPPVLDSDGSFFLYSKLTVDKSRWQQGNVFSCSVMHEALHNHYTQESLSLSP
light: DIVMTQSPLSLPVTPGEPASISCQASESLVHSNRNTYLHWYLQKPGQSPQLLIYKVSNRFSGVPDRFSGSGSGTDFTLKISRVEAEDVGVYYCSQNTHVPPTFGQGTKVEIERTVAAPSVFIFPPSDEQLKSGTASVVCLLNNFYPREAKVQWKVDNALQSGNSQESVTEQDSKDSTYSLSSTLTLSKADYEKHKVYACEVTHQGLSSPVTKSFNRGEC
notes: also called Ho Ab K334_10E
B10: GpH7-B3 variant I336_08L/GpL16-k0 (antibody, human IgG1, kappa)
heavy: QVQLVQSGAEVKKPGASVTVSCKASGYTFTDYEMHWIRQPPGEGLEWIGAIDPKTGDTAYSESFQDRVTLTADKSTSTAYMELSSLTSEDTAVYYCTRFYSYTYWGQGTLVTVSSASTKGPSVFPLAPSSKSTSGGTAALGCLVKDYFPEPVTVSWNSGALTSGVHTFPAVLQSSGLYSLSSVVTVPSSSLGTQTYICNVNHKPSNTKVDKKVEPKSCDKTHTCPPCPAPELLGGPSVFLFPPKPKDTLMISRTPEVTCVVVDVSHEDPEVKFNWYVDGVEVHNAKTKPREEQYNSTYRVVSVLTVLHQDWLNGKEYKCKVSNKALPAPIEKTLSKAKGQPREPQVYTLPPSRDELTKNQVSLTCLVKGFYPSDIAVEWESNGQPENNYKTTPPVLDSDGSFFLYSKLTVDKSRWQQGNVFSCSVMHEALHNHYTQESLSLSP
light: DIVMTQSPLSLPVTPGEPASISCQASESLVHSNRNTYLHWYLQKPGQSPQLLIYKVSNRFSGVPDRFSGSGSGTDFTLKISRVEAEDVGVYYCSQNTHVPPTFGQGTKVEIERTVAAPSVFIFPPSDEQLKSGTASVVCLLNNFYPREAKVQWKVDNALQSGNSQESVTEQDSKDSTYSLSSTLTLSKADYEKHKVYACEVTHQGLSSPVTKSFNRGEC
notes: also called Ho Ab I336_08L
B11: GpH7-B3 variant K326_12R/GpL16-k0 (antibody, human IgG1, kappa)
heavy: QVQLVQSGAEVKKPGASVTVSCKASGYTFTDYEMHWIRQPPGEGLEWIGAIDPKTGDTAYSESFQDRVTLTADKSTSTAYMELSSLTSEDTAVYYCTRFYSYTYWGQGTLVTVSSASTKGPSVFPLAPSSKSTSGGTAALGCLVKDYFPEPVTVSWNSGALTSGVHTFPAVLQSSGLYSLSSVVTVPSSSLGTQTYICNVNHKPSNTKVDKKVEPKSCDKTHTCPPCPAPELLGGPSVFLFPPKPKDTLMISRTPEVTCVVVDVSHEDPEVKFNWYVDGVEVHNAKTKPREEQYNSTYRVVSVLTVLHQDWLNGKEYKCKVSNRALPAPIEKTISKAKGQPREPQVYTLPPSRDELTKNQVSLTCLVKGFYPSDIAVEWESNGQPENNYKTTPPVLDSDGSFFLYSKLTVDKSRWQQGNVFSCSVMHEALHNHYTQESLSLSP
light: DIVMTQSPLSLPVTPGEPASISCQASESLVHSNRNTYLHWYLQKPGQSPQLLIYKVSNRFSGVPDRFSGSGSGTDFTLKISRVEAEDVGVYYCSQNTHVPPTFGQGTKVEIERTVAAPSVFIFPPSDEQLKSGTASVVCLLNNFYPREAKVQWKVDNALQSGNSQESVTEQDSKDSTYSLSSTLTLSKADYEKHKVYACEVTHQGLSSPVTKSFNRGEC
notes: also called Ho Ab K326_12R
B12: GpH7-B3 variant K326_03V/GpL16-k0 (antibody, human IgG1, kappa)
heavy: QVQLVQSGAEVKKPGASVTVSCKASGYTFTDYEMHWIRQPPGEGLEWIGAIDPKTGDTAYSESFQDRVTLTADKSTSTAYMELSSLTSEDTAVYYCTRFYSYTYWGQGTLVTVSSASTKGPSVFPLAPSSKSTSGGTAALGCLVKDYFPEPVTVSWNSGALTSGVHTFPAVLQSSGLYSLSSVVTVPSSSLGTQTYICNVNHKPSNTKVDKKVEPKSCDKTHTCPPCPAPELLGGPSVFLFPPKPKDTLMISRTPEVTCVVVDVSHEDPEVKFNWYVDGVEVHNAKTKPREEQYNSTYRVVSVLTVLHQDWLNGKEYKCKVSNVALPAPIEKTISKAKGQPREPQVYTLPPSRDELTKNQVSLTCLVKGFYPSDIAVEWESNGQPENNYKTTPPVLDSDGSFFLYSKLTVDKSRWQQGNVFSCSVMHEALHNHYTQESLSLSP
light: DIVMTQSPLSLPVTPGEPASISCQASESLVHSNRNTYLHWYLQKPGQSPQLLIYKVSNRFSGVPDRFSGSGSGTDFTLKISRVEAEDVGVYYCSQNTHVPPTFGQGTKVEIERTVAAPSVFIFPPSDEQLKSGTASVVCLLNNFYPREAKVQWKVDNALQSGNSQESVTEQDSKDSTYSLSSTLTLSKADYEKHKVYACEVTHQGLSSPVTKSFNRGEC
notes: also called Ho Ab K326_03V
B13: GpH7-B3 variant K326_04F/GpL16-k0 (antibody, human IgG1, kappa)
heavy: not shown
light: DIVMTQSPLSLPVTPGEPASISCQASESLVHSNRNTYLHWYLQKPGQSPQLLIYKVSNRFSGVPDRFSGSGSGTDFTLKISRVEAEDVGVYYCSQNTHVPPTFGQGTKVEIERTVAAPSVFIFPPSDEQLKSGTASVVCLLNNFYPREAKVQWKVDNALQSGNSQESVTEQDSKDSTYSLSSTLTLSKADYEKHKVYACEVTHQGLSSPVTKSFNRGEC
notes: also called Ho Ab K326_04F
B14: GpH7-B3 variant K334_05P/GpL16-k0 (antibody, human IgG1, kappa)
heavy: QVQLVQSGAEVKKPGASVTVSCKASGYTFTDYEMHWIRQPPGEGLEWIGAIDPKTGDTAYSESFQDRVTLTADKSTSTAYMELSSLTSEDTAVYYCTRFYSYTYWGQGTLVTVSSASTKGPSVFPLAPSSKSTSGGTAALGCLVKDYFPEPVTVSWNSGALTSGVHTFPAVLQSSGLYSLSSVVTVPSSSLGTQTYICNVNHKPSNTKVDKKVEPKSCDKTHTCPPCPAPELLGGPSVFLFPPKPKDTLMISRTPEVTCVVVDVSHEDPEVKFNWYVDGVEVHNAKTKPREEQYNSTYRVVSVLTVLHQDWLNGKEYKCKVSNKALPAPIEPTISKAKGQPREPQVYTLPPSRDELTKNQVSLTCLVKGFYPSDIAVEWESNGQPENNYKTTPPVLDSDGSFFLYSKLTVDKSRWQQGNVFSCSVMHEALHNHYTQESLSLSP
light: DIVMTQSPLSLPVTPGEPASISCQASESLVHSNRNTYLHWYLQKPGQSPQLLIYKVSNRFSGVPDRFSGSGSGTDFTLKISRVEAEDVGVYYCSQNTHVPPTFGQGTKVEIERTVAAPSVFIFPPSDEQLKSGTASVVCLLNNFYPREAKVQWKVDNALQSGNSQESVTEQDSKDSTYSLSSTLTLSKADYEKHKVYACEVTHQGLSSPVTKSFNRGEC
notes: also called Ho Ab K334_05P
B15: GpH7-B3 variant K326_07I/GpL16-k0 (antibody, human IgG1, kappa)
heavy: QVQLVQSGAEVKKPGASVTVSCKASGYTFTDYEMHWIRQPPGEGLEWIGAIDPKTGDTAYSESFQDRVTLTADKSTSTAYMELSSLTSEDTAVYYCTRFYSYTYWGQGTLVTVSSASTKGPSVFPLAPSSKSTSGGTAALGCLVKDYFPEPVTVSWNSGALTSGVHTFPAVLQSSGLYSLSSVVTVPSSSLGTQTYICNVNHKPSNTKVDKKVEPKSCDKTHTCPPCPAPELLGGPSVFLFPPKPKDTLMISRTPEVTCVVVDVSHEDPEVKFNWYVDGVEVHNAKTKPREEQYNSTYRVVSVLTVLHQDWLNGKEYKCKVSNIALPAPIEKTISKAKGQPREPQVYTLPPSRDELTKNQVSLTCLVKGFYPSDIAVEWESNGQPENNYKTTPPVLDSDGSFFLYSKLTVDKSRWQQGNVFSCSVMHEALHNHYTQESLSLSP
light: DIVMTQSPLSLPVTPGEPASISCQASESLVHSNRNTYLHWYLQKPGQSPQLLIYKVSNRFSGVPDRFSGSGSGTDFTLKISRVEAEDVGVYYCSQNTHVPPTFGQGTKVEIERTVAAPSVFIFPPSDEQLKSGTASVVCLLNNFYPREAKVQWKVDNALQSGNSQESVTEQDSKDSTYSLSSTLTLSKADYEKHKVYACEVTHQGLSSPVTKSFNRGEC
notes: also called Ho Ab K326_07I
B16: GpH7-B3 variant K326_20W/GpL16-k0 (antibody, human IgG1, kappa)
heavy: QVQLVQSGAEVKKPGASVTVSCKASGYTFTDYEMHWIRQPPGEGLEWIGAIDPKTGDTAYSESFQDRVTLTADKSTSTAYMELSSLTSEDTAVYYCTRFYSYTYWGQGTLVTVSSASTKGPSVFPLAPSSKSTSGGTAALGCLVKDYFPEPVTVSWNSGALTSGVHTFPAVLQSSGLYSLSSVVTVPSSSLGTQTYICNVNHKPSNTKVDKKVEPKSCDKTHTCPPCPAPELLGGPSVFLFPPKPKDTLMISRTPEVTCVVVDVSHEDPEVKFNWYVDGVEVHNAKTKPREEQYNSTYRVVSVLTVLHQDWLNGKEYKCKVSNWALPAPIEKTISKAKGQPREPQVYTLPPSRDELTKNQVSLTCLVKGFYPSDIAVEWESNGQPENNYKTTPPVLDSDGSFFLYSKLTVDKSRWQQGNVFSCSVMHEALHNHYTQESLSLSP
light: DIVMTQSPLSLPVTPGEPASISCQASESLVHSNRNTYLHWYLQKPGQSPQLLIYKVSNRFSGVPDRFSGSGSGTDFTLKISRVEAEDVGVYYCSQNTHVPPTFGQGTKVEIERTVAAPSVFIFPPSDEQLKSGTASVVCLLNNFYPREAKVQWKVDNALQSGNSQESVTEQDSKDSTYSLSSTLTLSKADYEKHKVYACEVTHQGLSSPVTKSFNRGEC
notes: also called Ho Ab K326_20W

The target in this experiment is T1, FcγRIIa R. Nature of the experiment: SPR (Biacore), captured antibody, FcγR as analyte; relative binding activity. As for the experimental part: Analysis of interaction between objective antibody and the FcγR was carried out using Biacore T100 (GE Healthcare). HBS-EP+ (GE Healthcare) was used as the running buffer, and the measurement temperature was set to 25° C. Chips produced by immobilizing the antigen peptide by the amine coupling method to a Series S Sencor Chip CM5 (GE Healthcare), or alternatively, chips produced by allowing preliminarily biotinylated antigen peptides to interact with and immobilize onto a Series S Sensor Chip SA (certified) (GE Healthcare) were used. Antibodies of interest were captured onto an antigen peptide-immobilized chip, and allowed to interact to each FcγR diluted with running buffer. To regenerate and repeatedly use the chip, the antibodies captured on the chip were washed off by reacting 10 mM glycine-HCl, pH 1.5.
Consider B1, for which the Ho/Con_2aR is 96.4 % (GpH7-B3/GpL16-k0 = 100). To B2 belongs 105 % (GpH7-B3/GpL16-k0 = 100); to B3, 134 % (GpH7-B3/GpL16-k0 = 100). Then B4, with 100 % (GpH7-B3/GpL16-k0 = 100); and B5, with 113 % (GpH7-B3/GpL16-k0 = 100); and B6, with 94.5 % (GpH7-B3/GpL16-k0 = 100). Then B7, with 110 % (GpH7-B3/GpL16-k0 = 100); and B8, with 131 % (GpH7-B3/GpL16-k0 = 100); and B9, with 106 % (GpH7-B3/GpL16-k0 = 100). Turning to B10, the Ho/Con_2aR is 105 % (GpH7-B3/GpL16-k0 = 100). Consider B11, for which the Ho/Con_2aR is 95.7 % (GpH7-B3/GpL16-k0 = 100). As for B12, the Ho/Con_2aR was 139 % (GpH7-B3/GpL16-k0 = 100). To B13 belongs 133 % (GpH7-B3/GpL16-k0 = 100); to B14, 102 % (GpH7-B3/GpL16-k0 = 100); to B15, 133 % (GpH7-B3/GpL16-k0 = 100). With B16, the Ho/Con_2aR is 120 % (GpH7-B3/GpL16-k0 = 100).

The values above are taken from patent US20150344570A1 (published 2015).
